US20060239990A1 (published 2006)

B1: HA-tagged PRMT2 (human Protein Arginine N-Methyltransferase 2, expressed from pVR1012-PRMT2-HA) (enzyme)
chain: MATSGDCPRSESQGEEPAECSEAGLLQEGVQPEEFVAIADYAATDETQLSFLRGEKILILRQTTADWWWGERAGCCGYIPANHVGKHVDEYDPEDTWQDEEYFGSYGTLKLHLEMLADQPRTTKYHSVILQNKESLTDKVILDVGCGTGIISLFCAHYARPRAVYAVEASEMAQHTGQLVLQNGFADIITVYQQKVEDVVLPEKVDVLVSEWMGTCLLFEFMIESILYARDAWLKEDGVIWPTMAALHLVPCSADKDYRSKVLFWDNAYEFNLSALKSLAVKEFFSKPKYNHILKPEDCLSEPCTILQLDMRTVQISDLETLRGELRFDIRKAGTLHGFTAWFSVHFQSLQEGQPPQVLSTGPFHPTTHWKQTLFMMDDPVPVHTGDVVTGSVVLQRNPVWRRHMSVALSWAVTSRQDPTSQKVGEKVFPIWR
notes: Expressed by transient transfection in 293 or Saos 2 cells; also called HA-PRMT2; not shown: HA tag at the C-terminus

Legend:
RelA (p65) in 293 cells = target: T1, RelA (p65) in 293 cells (UniProt Q04206 1-551); assay: immunoprecipitation with anti-HA antibody from transfected 293 cells, immunoblot for p65
T1 construct: also called endogenous p65
Description: (§1) To map IκB-α domains that interacted with PRMT2, 293 cells were transfected with HA-tagged PRMT2 (FIG. 5C) and His-tagged derivatives of the indicated IκB-α expression vectors (FIG. 5B) as indicated. 24 hrs later cells were harvested in cell lysis buffer and cell lysates were immunoprecipitated with agarose-conjugated antibody to His (IκB-α) (FIG. 5D, lanes 1-4) and HA (PRMT2) (FIG. 5D, lanes 5-6), fractionated by SDS-PAGE and analyzed by immunoblotting with antibody to HA to detect PRMT2 ((FIG. 5D lanes 1, 2 and lanes 5, 6) and His (FIG. 5D, lanes 3, 4). To map the region of PRMT2 that interacted with endogenous IκB-α and p65, 293 cells were transfected with HA-tagged PRMT2 (FIG. 5C) derivatives as indicated. Cells were harvested 24 hrs after transfection in cell lysis buffer, immunoprecipitated with agarose-conjugated antibody to HA to detect PRMT2 and derivatives (FIG. 5E, lanes 7-15), fractionated by SDS-PAGE and analyzed by immunoblotting with antibody to p65 (FIG. 5E, lanes 7-9), IκB-α (FIG. 5E, lanes 10-12) or HA (FIG. 5E, lanes 13-15).
A polyclonal antibody to recombinant PRMT2 was used to examine the association between endogenous PRMT2 and IκB-α in vivo. […] The domain of IκB-α required for association with PRMT2 was mapped using in vivo immunoprecipitation assays where HA-tagged PRMT2 was coexpressed with truncation mutants of His-tagged IκB-α (FIG. 5B) in 293 cells. The ankyrin domain was both necessary and sufficient for this association (FIG. 5D, lanes 1 and 2). The domain of PRMT2 that interacted with endogenous IκB-α was mapped by immunoprecipitation following expression HA-tagged PRMT2 truncation mutants (FIG. 5C). […] When the ratios of PRMT2 or PRMT2-A binding to IκB-α were compared, both interacted with IκB-α with similar affinity.

[1] = target: T2, retinoblastoma protein (RB), endogenous in cultured cell lines (293, U2OS) (human, UniProt P06400 2-928); assay: immunoprecipitation of endogenous RB from 293 cells transfected with HA-tagged PRMT2, Western blot with anti-HA antibody
T2 construct: also called endogenous RB
T2 sequence (looked up): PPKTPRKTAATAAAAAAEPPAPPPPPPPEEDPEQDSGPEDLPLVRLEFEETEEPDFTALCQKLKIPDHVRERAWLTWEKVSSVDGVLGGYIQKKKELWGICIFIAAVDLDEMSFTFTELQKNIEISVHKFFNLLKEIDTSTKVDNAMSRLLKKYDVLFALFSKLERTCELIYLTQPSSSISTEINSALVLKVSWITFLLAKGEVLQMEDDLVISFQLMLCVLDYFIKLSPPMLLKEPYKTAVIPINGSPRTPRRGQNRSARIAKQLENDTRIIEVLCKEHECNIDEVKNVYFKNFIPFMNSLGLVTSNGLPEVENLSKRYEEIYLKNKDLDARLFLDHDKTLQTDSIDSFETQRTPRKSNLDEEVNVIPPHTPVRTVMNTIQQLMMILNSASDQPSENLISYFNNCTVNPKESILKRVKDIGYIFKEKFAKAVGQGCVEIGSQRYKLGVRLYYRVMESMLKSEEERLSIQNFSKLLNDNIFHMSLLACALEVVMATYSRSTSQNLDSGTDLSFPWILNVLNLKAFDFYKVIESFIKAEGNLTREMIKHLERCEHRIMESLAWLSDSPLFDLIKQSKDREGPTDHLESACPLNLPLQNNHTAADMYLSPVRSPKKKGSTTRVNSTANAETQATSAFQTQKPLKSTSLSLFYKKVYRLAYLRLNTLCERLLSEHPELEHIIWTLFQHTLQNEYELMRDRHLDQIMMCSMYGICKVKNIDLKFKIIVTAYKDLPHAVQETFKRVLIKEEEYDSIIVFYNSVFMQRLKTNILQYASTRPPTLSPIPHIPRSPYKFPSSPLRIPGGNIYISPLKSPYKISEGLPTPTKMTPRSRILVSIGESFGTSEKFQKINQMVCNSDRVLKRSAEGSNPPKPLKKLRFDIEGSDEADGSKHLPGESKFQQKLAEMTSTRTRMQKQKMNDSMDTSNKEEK
Method: FIG. 8A-C illustrate that PRMT2 interacts with retinoblastoma protein (RB). […] GST-RB and GST were bound to glutathione sepharose beads and incubated with S³⁵-labeled in vitro translated PRMT1, PRMT2, PRMT3, and PRMT4. Co-precipitated labeled PRMTs were analyzed by SDS-PAGE. […] HA-tagged PRMT2 (+) or control vectors (−) were transfected in 293 cells. Cell lysates were immunoprecipitated with rabbit RB antibodies or IgG and followed by Western blot analysis using mouse HA and RB antibodies (upper panel). A Western blot using mouse HA antibodies detects HA-tagged PRMT2 (lower panel).
The interaction of PRMT2 with RB was then analyzed in vivo. HA-tagged PRMT2 expression vectors or control vectors were transfected into 293 cells, and immunoprecipitation of endogenous RB was followed by a Western blot analysis using an anti-HA antibody. PRMT2 directly interacted with RB in contrast to control vectors (FIG. 8C).

[2] = target: B1; assay: immunoprecipitation with anti-HA antibody from transfected 293 cells, immunoblot for endogenous IκB-α
Description: as §1
A polyclonal antibody to recombinant PRMT2 was used to examine the association between endogenous PRMT2 and IκB-α in vivo. […] The domain of IκB-α required for association with PRMT2 was mapped using in vivo immunoprecipitation assays where HA-tagged PRMT2 was coexpressed with truncation mutants of His-tagged IκB-α (FIG. 5B) in 293 cells. […]

[3] = target: T3, STAT3, endogenous in HEK293 cells (human, UniProt P40763 2-770); assay: immunoprecipitation with anti-Flag antibody from transfected HEK293 cells, immunoblot
T3 construct: also called endogenous STAT3
Method: (§2) To examine whether a direct interaction occurs between PRMT-2 and STAT3 in vivo, FLAG-tagged full-length PRMT-2 cDNA and/or STAT3 cDNA were transiently transfected into HEK293 cells. After culturing the transfected cells, an immunoprecipitation was performed on cell lysates using anti-Flag antibodies followed by immunoblotting with anti-PRMT-2 antibody. […] Identical results were observed when using anti-STAT3 antibodies for immunoprecipitation (data not shown).

[4] = target: mouse STAT3 (endogenous in GT1-7 cells and VSMC, or expressed from mouse STAT3 pcDNA3 in HEK293 cells) (mouse, UniProt P42227 2-770); assay: immunoprecipitation with anti-Flag antibody from HEK293 cells transfected with PRMT-2-Flag and STAT3, immunoblot
Method: as §2

T3 sequence (P40763 2-770 limits assumed): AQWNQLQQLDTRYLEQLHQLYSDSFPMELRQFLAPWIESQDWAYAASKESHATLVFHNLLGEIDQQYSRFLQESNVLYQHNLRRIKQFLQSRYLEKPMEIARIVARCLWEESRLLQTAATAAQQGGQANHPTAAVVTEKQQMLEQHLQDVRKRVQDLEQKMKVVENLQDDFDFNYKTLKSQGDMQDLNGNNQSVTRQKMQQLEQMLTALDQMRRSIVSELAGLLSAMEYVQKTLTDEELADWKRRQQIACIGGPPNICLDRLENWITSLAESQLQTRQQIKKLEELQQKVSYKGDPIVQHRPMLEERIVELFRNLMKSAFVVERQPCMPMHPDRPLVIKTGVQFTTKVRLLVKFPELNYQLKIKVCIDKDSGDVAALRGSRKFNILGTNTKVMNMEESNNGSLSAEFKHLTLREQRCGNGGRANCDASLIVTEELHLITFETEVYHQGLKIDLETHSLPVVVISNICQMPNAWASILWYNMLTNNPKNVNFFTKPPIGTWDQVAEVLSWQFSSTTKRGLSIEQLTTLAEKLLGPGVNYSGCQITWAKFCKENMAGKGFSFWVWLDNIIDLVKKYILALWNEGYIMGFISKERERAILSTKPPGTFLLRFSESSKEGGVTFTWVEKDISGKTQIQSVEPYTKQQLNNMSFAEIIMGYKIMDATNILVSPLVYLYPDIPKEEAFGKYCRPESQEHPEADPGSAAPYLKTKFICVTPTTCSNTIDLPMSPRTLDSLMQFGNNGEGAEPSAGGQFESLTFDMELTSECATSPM
T1 sequence (Q04206 whole entry): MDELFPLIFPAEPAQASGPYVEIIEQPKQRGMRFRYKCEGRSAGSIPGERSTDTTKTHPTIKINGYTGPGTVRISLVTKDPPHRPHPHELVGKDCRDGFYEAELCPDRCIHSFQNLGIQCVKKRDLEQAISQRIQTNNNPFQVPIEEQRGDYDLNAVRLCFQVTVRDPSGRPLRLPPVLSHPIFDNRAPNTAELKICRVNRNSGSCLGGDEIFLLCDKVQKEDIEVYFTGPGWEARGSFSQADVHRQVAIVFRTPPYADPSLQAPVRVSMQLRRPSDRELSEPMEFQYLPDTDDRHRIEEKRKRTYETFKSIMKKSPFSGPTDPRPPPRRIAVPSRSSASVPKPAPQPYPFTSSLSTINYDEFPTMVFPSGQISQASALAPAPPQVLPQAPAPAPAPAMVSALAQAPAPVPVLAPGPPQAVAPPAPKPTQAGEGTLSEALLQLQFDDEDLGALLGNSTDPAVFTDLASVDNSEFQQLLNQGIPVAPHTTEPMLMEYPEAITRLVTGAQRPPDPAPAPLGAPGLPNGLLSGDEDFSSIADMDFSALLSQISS
mouse STAT3 (endogenous in GT1-7 cells and VSMC, or expressed from mouse STAT3 pcDNA3 in HEK293 cells), sequence (P42227 2-770 limits assumed): as the sequence (P40763 2-770 limits assumed) above, with E759D counted along it

## B1
RelA (p65) in 293 cells
  binding result: no binding
[1]
  binding result: binds

B2: IκB-α, endogenous in 293 cells (other, human, UniProt P25963 1-317, looked up)
chain: MFQAAERPQEWAMEGPRDGLKKERLLDDRHDSGLDSMKDEEYEQMVKELQEIRLEPQEVPRGSEPWKQQLTEDGDSFLHLAIIHEEKALTMEVIRQVKGDLAFLNFQNNLQQTPLHLAVITNQPEIAEALLGAGCDPELRDFRGNTPLHLACEQGCLASVGVLTQSCTTPHLHSILKATNYNGHTCLHLASIHGYLGIVELLVSLGADVNAQEPCNGRTALHLAVDLQNPDLVSLLLKCGADVNRVTYQGYSPYQLTWGRPSTRIQQQLGQLTLENLQMLPESEDEESYDTESEFTEFTEDELPYDDCVFGGQRLTL
notes: also called endogenous IκB-α
[2]
  binding result: binds

B3: mouse PRMT2-Flag (FLAG-tagged full-length PRMT-2) (enzyme, UniProt Q9R144 1-448, looked up)
chain: MEAPGEGPCSESQVIPVLEEDPVDYGCEMQLLQDGAQLQLQLQPEEFVAIADYTATDETQLSFLRGEKILILRQTTADWWWGERAGCCGYIPANHLGKQLEEYDPEDTWQDEEYFDSYGTLKLHLEMLADQPRTTKYHSVILQNKESLKDKVILDVGCGTGIISLFCAHHARPKAVYAVEASDMAQHTSQLVLQNGFADTITVFQQKVEDVVLPEKVDVLVSEWMGTCLLFEFMIESILYARDTWLKGDGIIWPTTAALHLVPCSAEKDYHSKVLFWDNAYEFNLSALKSLAIKEFFSRPKSNHILKPEDCLSEPCTILQLDMRTVQVPDLETMRGELRFDIQKAGTLHGFTAWFSVYFQSLEEGQPQQVVSTGPLHPTTHWKQTLFMMDDPVPVHTGDVVHGFCCVTKKSGMEKAHVCLSELGCHVRTRSHVSTELETGSFRSGGDS
notes: Printed both as PRMT2-Flag and as Flag-PRMT2, so the end that carries the tag is uncertain; Expressed in HEK293 cells; also called Flag-PRMT2; Flag PRMT2 fusion protein; not shown: Flag tag
[3]
  binding result: binds
[4]
  binding result: binds
